These results are taken from article PMC4872098.

The target of data set [1] is T1, Rbfox RRM (109-208) (Homo sapiens, UniProt Q9NWB1 109-208).
T1 sequence: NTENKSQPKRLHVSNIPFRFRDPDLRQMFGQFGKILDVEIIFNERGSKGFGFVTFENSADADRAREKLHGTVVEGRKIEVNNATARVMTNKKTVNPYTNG
Put plainly: EMSA. For orientation: In EMSA bound probe runs differently from free probe, usually more slowly.

The target in data set [2] is T1, Rbfox RRM (109-208). Put plainly: NMR.
The target in data set [3] is T2, Rbfox1 RRM (109-225) (Homo sapiens, UniProt Q9NWB1 109-225).
T2 sequence: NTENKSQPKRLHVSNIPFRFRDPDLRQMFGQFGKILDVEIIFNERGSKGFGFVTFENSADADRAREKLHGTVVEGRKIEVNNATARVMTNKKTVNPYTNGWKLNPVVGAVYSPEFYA
Put plainly: NMR.

As usually defined, the Kd is the concentration at which binding is half-saturated. Read a low Kd as higher affinity.

B1: pre-miR-20b full-length (structured_RNA)
RNA: AGUACCAAAGUGCUCAUAGUGCAGGUAGUUUUGGCAUGACUCUACUGUAGUAUGGGCACUUCCAGUACU
Consider B1, for which, in data set [1], the Kd was roughly 50 nM.
With GCUCAUAGUGCAGGUAGUUUUGGCAUGACUCUACUGUAGUAUGGGC (structured_RNA) [pre-miR-20b 46-nt (G7-C52)], the binding result in data set [2] was “binds”.
Regarding GCUCAUAGUGCAGGUAGUUUUGGCAUGACUCUACUGUAGUAUGGGC (structured_RNA, 4-thiouridine at U43 carrying spin label) [pre-miR-20b 46-nt, 4-thio-U43 spin-labeled], in data set [3], the binding result was “binds”.
